Measured values reported in US20220017622A1 (Pfizer, published 2022).

Columns and labels:
[1] = target: T1, mouse B7-H4 extracellular domain (mouse, UniProt Q7TSP5 29-258); test: SPR 37 C; bispecific on anti-hFc chip, ECD analyte
T1 construct: Soluble ECD used as SPR analyte; also called muB7-H4 ECD; muB7-H4
T1 sequence: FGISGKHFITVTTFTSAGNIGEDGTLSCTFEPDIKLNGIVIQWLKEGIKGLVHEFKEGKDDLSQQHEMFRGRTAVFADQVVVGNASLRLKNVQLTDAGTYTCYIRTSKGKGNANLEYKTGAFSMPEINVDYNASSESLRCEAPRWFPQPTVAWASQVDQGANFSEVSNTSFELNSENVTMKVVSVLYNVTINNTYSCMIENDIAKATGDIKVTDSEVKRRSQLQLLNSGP

[2] = target: T2, rat B7-H4 extracellular domain (rat, UniProt Q501W4 29-257); test: SPR 37 C; bispecific on anti-hFc chip, ECD analyte
T2 construct: Soluble ECD used as SPR analyte; also called ratB7-H4 ECD
T2 sequence: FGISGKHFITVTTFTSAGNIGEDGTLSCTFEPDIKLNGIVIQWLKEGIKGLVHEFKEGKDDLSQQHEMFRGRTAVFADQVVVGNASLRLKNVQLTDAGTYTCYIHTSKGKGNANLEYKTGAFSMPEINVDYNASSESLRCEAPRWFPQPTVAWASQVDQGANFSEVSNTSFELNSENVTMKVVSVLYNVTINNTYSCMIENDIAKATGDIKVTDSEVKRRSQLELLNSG

[3] = target: T3, human B7-H4 extracellular domain (human, UniProt Q7Z7D3 29-258); test: SPR 37 C; bispecific on anti-hFc chip, ECD analyte
T3 construct: Soluble ECD used as SPR analyte; also called huB7-H4 ECD; huB7-H4
T3 sequence: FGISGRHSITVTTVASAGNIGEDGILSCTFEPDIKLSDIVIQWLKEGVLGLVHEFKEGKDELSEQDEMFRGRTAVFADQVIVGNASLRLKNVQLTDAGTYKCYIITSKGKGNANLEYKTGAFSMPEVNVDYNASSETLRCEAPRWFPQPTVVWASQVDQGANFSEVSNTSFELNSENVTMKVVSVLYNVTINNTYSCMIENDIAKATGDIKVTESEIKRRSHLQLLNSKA

[4] = target: T4, cyno B7-H4 extracellular domain (cyno, UniProt Q7Z7D3 29-258 (human entry)); test: SPR 37 C; bispecific on anti-hFc chip, ECD analyte
T4 construct: Soluble ECD used as SPR analyte; also called cyB7-H4 ECD; cyB7-H4
T4 sequence: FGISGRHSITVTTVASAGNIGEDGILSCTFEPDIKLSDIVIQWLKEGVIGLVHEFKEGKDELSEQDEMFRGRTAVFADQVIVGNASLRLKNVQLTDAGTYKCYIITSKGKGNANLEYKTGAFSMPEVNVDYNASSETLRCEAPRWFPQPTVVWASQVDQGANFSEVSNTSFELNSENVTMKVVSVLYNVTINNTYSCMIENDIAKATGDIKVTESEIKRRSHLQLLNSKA

[5] = target: T5, human CD3 (delta/epsilon heterodimer) (human, UniProt P07766 23-126; P04234 22-105); test: SPR 37 C; CD3 delta/epsilon on anti-His chip, bispecific (IgG2 scaffold) analyte
T5 construct: captured on an anti-His chip, so it carries a His tag; also called huCD3

human B7-H4 on cells = target: T6, human B7-H4 on cells (human, UniProt Q7Z7D3 25-282); test: cell-based or functional assay
T6 sequence (looked up): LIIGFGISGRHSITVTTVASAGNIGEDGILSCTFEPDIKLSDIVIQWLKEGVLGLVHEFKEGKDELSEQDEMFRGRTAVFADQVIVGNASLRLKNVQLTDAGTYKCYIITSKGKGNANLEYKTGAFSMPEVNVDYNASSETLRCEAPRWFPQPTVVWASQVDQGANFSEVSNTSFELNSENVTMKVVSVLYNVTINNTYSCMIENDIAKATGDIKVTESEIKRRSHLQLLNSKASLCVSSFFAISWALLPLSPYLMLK

[6] = target: T5, human CD3 (delta/epsilon heterodimer); test: SPR 37 C; CD3 delta/epsilon on anti-His chip, bispecific analyte; CD3 variant 2B5v6
[7] = target: T1, mouse B7-H4 extracellular domain; test: SPR 25 C; bispecific on anti-hFc chip, ECD analyte
[8] = target: T3, human B7-H4 extracellular domain; test: SPR 25 C; bispecific on anti-hFc chip, ECD analyte
[9] = target: T4, cyno B7-H4 extracellular domain; test: SPR 25 C; bispecific on anti-hFc chip, ECD analyte
[10] = target: T3, human B7-H4 extracellular domain; test: SPR 37 C; bispecific on anti-hFc chip, ECD analyte; remark: listed apart in the source
[11] = target: T4, cyno B7-H4 extracellular domain; test: SPR 37 C; bispecific on anti-hFc chip, ECD analyte; remark: listed apart in the source
[12] = target: T3, human B7-H4 extracellular domain; test: SPR 37 C; bispecific (IgG2 scaffold) on anti-hFc chip, ECD analyte
[13] = target: T5, human CD3 (delta/epsilon heterodimer); test: SPR 37 C; CD3 delta/epsilon on anti-His chip, bispecific analyte
[14] = target: T7, cyno CD3 (delta/epsilon heterodimer) (cyno, UniProt Q95LI5 22-117; Q95LI8 22-105); test: as above
T7 construct: also called cyCD3

[15] = target: T5, human CD3 (delta/epsilon heterodimer); test: SPR 25 C; CD3 delta/epsilon on anti-His chip, bispecific analyte
[16] = target: T7, cyno CD3 (delta/epsilon heterodimer); test: as above

T7 sequence (Q95LI5 22-117, stated change not applied, chain 1 of 2): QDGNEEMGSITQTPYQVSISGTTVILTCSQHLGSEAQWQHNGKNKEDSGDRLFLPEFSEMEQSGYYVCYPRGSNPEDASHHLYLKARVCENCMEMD
T7 sequence (Q95LI8 22-105, stated change not applied, chain 2 of 2): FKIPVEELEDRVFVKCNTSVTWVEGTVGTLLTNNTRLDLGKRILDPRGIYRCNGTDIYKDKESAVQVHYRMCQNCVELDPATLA
T5 sequence (P07766 23-126, stated change not applied, chain 1 of 2): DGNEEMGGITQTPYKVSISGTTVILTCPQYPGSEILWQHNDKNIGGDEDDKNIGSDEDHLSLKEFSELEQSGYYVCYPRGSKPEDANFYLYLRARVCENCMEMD
T5 sequence (P04234 22-105, stated change not applied, chain 2 of 2): as the sequence (Q95LI8 22-105, stated change not applied, chain 2 of 2) above, with V5I, K15N, V20I, T32S, N33D, N34I, A64T, N74S, L83V counted along it

B1: B7-H4xCD3 bispecific antibody 0074 (bispecific antibody, IgG2)
heavy 1: QVQLQQWGAGLLKPSETLSLTCAVYGGSFSGYYWNWIRQPPGKGLEWIGEINHSGSTKYNPSLKSRVTISGDTSKNQFSLKLNSVTAADTAVYYCVRGLYNWNVDSWGQGTLVTVSSASTKGPSVFPLAPCSRSTSESTAALGCLVKDYFPEPVTVSWNSGALTSGVHTFPAVLQSSGLYSLSSVVTVPSSNFGTQTYTCNVDHKPSNTKVDKTVERKCEVECPECPAPPVAGPSVFLFPPKPKDTLMISRTPEVTCVVVAVSHEDPEVQFNWYVDGVEVHNAKTKPREEQFNSTFRVVSVLTVVHQDWLNGKEYKCKVSNKGLPSSIEKTISKTKGQPREPQVYTLPPSREEMTKNQVSLTCEVKGFYPSDIAVEWESNGQPENNYKTTPPMLDSDGSFFLYSKLTVDKSRWQQGNVFSCSVMHEALHNHYTQKSLSLSPGK
light 1: DIQMTQSPSSLSASVGDRVTITCRASQGIRNDLGWYQQKPGKAPKRLIYVASSLQSGVPSRFSGSGSGTEFTLTISSLQPEDFATYYCLQHNSYPYTFGQGTKLEIKRTVAAPSVFIFPPSDEQLKSGTASVVCLLNNFYPREAKVQWKVDNALQSGNSQESVTEQDSKDSTYSLSSTLTLSKADYEKHKVYACEVTHQGLSSPVTKSFNRGEC
heavy 2: EVQLVESGGGLVQPGGSLRLSCAASGFTFSDYYMTWVRQAPGKGLEWVAFIRNQARGYTSDHNPSVKGRFTISRDNAKNSLYLQMNSLRAEDTAVYYCARDRPSYYVLDYWGQGTTVTVSSASTKGPSVFPLAPCSRSTSESTAALGCLVKDYFPEPVTVSWNSGALTSGVHTFPAVLQSSGLYSLSSVVTVPSSNFGTQTYTCNVDHKPSNTKVDKTVERKCRVRCPRCPAPPVAGPSVFLFPPKPKDTLMISRTPEVTCVVVAVSHEDPEVQFNWYVDGVEVHNAKTKPREEQFNSTFRVVSVLTVVHQDWLNGKEYKCKVSNKGLPSSIEKTISKTKGQPREPQVYTLPPSREEMTKNQVSLTCLVKGFYPSDIAVEWESNGQPENNYKTTPPMLDSDGSFFLYSRLTVDKSRWQQGNVFSCSVMHEALHNHYTQKSLSLSPGK
light 2: DIQMTQSPSSLSASVGDRVTITCTSSQSLFNVRSQKNYLAWYQQKPGKAPKLLIYWASTRESGVPSRFSGSGSGTDFTLTISSLQPEDFATYYCKQSYDLFTFGGGTKVEIKRTVAAPSVFIFPPSDEQLKSGTASVVCLLNNFYPREAKVQWKVDNALQSGNSQESVTEQDSKDSTYSLSSTLTLSKADYEKHKVYACEVTHQGLSSPVTKSFNRGEC
notes: Chains 1-2: B7-H4 arm; chains 3-4: CD3 arm; IgG2 EEE/RRR; also called anti-B7-H4 clone 28D10; CD3 variant 2B5v6
Question: Which Kd [1] does the source give for B1 here?
Answer: 776 nM

Question: And the koff [1]?
Answer: 0.134 s⁻¹

Question: And the kon [1]?
Answer: 173000 M⁻¹ s⁻¹

Question: And the Kd [2]?
Answer: 1120 nM

Question: And the koff [2]?
Answer: 0.131 s⁻¹

Question: What about the kon [2] of the same binder?
Answer: 117000 M⁻¹ s⁻¹

Question: What about the Kd [3] of the same binder?
Answer: 8.86 nM

Question: And the koff [3]?
Answer: 0.00509 s⁻¹

Question: And the kon [3]?
Answer: 575000 M⁻¹ s⁻¹

Question: What about the Kd [4] of the same binder?
Answer: 8.81 nM

Question: And the koff [4]?
Answer: 0.00487 s⁻¹

Question: And the kon [4]?
Answer: 553000 M⁻¹ s⁻¹

Question: And the Kd [5]?
Answer: 56.9 nM

Question: What about the koff [5] of the same binder?
Answer: 0.0336 s⁻¹

Question: What about the kon [5] of the same binder?
Answer: 592000 M⁻¹ s⁻¹

Question: What about the “T cell mediated tumor cell killing EC50, HCC1954-Luc” value (human B7-H4 on cells) of the same binder?
Answer: 73 nM

Question: And the “T cell mediated tumor cell killing, MDA-MB-468” value (human B7-H4 on cells)?
Answer: 42

Question: What about the “T cell mediated tumor cell killing, OVCAR3-Luc” value (human B7-H4 on cells) of the same binder?
Answer: 31

Question: And the “T cell mediated tumor cell killing, T47D” value (human B7-H4 on cells)?
Answer: 224

Question: And the Kd [6]?
Answer: 56.9 nM

Question: And the koff [6]?
Answer: 0.0336 s⁻¹

Question: What about the kon [6] of the same binder?
Answer: 592000 M⁻¹ s⁻¹

Question: And the Kd [7]?
Answer: 299 nM

Question: And the koff [7]?
Answer: 0.0299 s⁻¹

Question: What about the kon [7] of the same binder?
Answer: 100000 M⁻¹ s⁻¹

Question: And the Kd [8]?
Answer: 6.83 nM

Question: What about the koff [8] of the same binder?
Answer: 0.0012 s⁻¹

Question: And the kon [8]?
Answer: 176000 M⁻¹ s⁻¹

Question: What about the Kd [9] of the same binder?
Answer: 9.29 nM

Question: And the koff [9]?
Answer: 0.0012 s⁻¹

Question: And the kon [9]?
Answer: 129000 M⁻¹ s⁻¹

Question: And the Kd [10]?
Answer: 21.9 nM

Question: What about the koff [10] of the same binder?
Answer: 0.00602 s⁻¹

Question: What about the kon [10] of the same binder?
Answer: 275000 M⁻¹ s⁻¹

Question: And the Kd [11]?
Answer: 30.9 nM

Question: What about the koff [11] of the same binder?
Answer: 0.00581 s⁻¹

Question: And the kon [11]?
Answer: 188000 M⁻¹ s⁻¹

Question: And the Kd [12]?
Answer: 18.2 nM

Question: And the koff [12]?
Answer: 0.00582 s⁻¹

Question: And the kon [12]?
Answer: 319000 M⁻¹ s⁻¹

Question: What about the Kd [13] of the same binder?
Answer: 41.9 nM

Question: What about the koff [13] of the same binder?
Answer: 0.0234 s⁻¹

Question: What about the kon [13] of the same binder?
Answer: 558000 M⁻¹ s⁻¹

Question: What about the Kd [14] of the same binder?
Answer: 47.1 nM

Question: And the koff [14]?
Answer: 0.0239 s⁻¹

Question: And the kon [14]?
Answer: 507000 M⁻¹ s⁻¹

Question: What about the Kd [15] of the same binder?
Answer: 7.38 nM

Question: And the koff [15]?
Answer: 0.00559 s⁻¹

Question: What about the kon [15] of the same binder?
Answer: 758000 M⁻¹ s⁻¹

Question: And the Kd [16]?
Answer: 8.33 nM

Question: What about the koff [16] of the same binder?
Answer: 0.00534 s⁻¹

Question: What about the kon [16] of the same binder?
Answer: 642000 M⁻¹ s⁻¹
